Measurements taken from patent US20260132197A1 (NANJING LEGEND BIOTECH, published 2026).
Changes are numbered by the printed parent chain. Numbers in names are those of the source.

Columns and labels:
[1] = biological target: T1, Human CD47-C33G (human, UniProt Q08722 19-135); test: SPR, IgG captured, CD47 in flow; exp 3
T1 construct: also called CD47 mutein with C33G mutation

[2] = biological target: T2, wild type human CD47 (Acro Biosystems, cat. no. CD7-H5227) (human, UniProt Q08722 19-139); test: SPR, IgG captured, CD47 in flow; exp 3
T2 construct: Bought protein used as SPR analyte; also called Human CD47 wt; wild-type CD47

[3] = biological target: T1, Human CD47-C33G; test: SPR, IgG captured, CD47 in flow; exp 1
[4] = biological target: T2, wild type human CD47 (Acro Biosystems, …); test: SPR, IgG captured, CD47 in flow; exp 1
[5] = biological target: T3, human CD47 on cells (SHP-77 tumor cells, human red blood cells, CCRF-CEM cells, human CD47 CHO-K1 stable cell … (human, UniProt Q08722 19-323)); test: flow cytometry on human RBCs; plateau not reached, not accurate;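 for Fitted Maximal MFI: antibody binding measured by flow cytometry as geometric mean fluorescence intensity over a range of antibody concentrations, with EC50 and maximum taken from a sigmoidal dose-response fit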
T3 construct: whole, on cells; also called RBC

[6] = biological target: T1, Human CD47-C33G; test: SPR, IgG captured, CD47 in flow; exp 3; remark: listed apart in the source
[7] = biological target: T2, wild type human CD47 (Acro Biosystems, …); test: SPR, IgG captured, CD47 in flow; exp 3; remark: listed apart in the source
[8] = biological target: T3, human CD47 on cells (SHP-77 tumor …); test: flow cytometry on human CD47 CHO-K1 cells
[9] = biological target: T1, Human CD47-C33G; test: SPR, IgG captured, CD47 in flow; exp 4
[10] = biological target: T2, wild type human CD47 (Acro Biosystems, …); test: SPR, IgG captured, CD47 in flow; exp 4
[11] = biological target: T1, Human CD47-C33G; test: SPR, IgG captured, CD47 in flow; exp 4; remark: listed apart in the source
[12] = biological target: T2, wild type human CD47 (Acro Biosystems, …); test: SPR, IgG captured, CD47 in flow; exp 4; remark: listed apart in the source
[13] = biological target: T3, human CD47 on cells (SHP-77 tumor …); test: flow cytometry on SHP-77 cells
[14] = biological target: T1, Human CD47-C33G; test: SPR, IgG captured, CD47 in flow; exp 2;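 note: rates derived from association and dissociation curves, KD estimated from them, C33G mutein used to avoid CD47 IgV homodimers for true monovalent affinity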
[15] = biological target: T2, wild type human CD47 (Acro Biosystems, …); test: SPR, IgG captured, CD47 in flow; exp 2;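 note: rates derived from association and dissociation curves, KD estimated from them, C33G mutein used to avoid CD47 IgV homodimers for true monovalent affinity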
[16] = biological target: T4, cynomolgus CD47 on CHO-K1 stable cell line (cynomolgus, UniProt A0A5F8AK49 19-323 (rhesus entry)); test: flow cytometry on cynomolgus CD47 CHO-K1 cells
T4 construct: whole, on cells; also called cynomolgus CD47/CHO-K1

[17] = biological target: T1, Human CD47-C33G; test: SPR, IgG captured, CD47 in flow; exp 1; remark: listed apart in the source
[18] = biological target: T2, wild type human CD47 (Acro Biosystems, …); test: SPR, IgG captured, CD47 in flow; exp 1; remark: listed apart in the source
[19] = biological target: T1, Human CD47-C33G; test: SPR, IgG captured, CD47 in flow; exp 1; remark: listed apart in the source
[20] = biological target: T3, human CD47 on cells (SHP-77 tumor …); test: cell-based or functional assay
[21] = biological target: T3, human CD47 on cells (SHP-77 tumor …); test: flow cytometry on human RBCs; poor fitting, not accurate;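 for Fitted Maximal MFI: antibody binding measured by flow cytometry as geometric mean fluorescence intensity over a range of antibody concentrations, with EC50 and maximum taken from a sigmoidal dose-response fit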
[22] = biological target: T3, human CD47 on cells (SHP-77 tumor …); test: flow cytometry on human RBCs;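 note: antibody binding measured by flow cytometry as geometric mean fluorescence intensity over a range of antibody concentrations, with EC50 and maximum taken from a sigmoidal dose-response fit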

B1: 108VH4.M4-VL1.M1 (antibody, V domains shown)
VH: EVQLVQSGAEVKKPGSSVKVSCKASGYSFTHHWIHWVRQAPGQGLEWMGMIDASDSETRLSQKFKDRVTITADKSTSTAYMELSSLRSEDTAVYYCARLGRYYFDYWGQGTTVTVSS
VL: EIVLTQSPATLSLSPGERATLSCRASENVGTYISWYQQKPGQAPRLLIYGASNRYTGIPARFSGSGSGTDFTLTISSLEPEDFAVYYCGESYGHLYTFGGGTKVEIK
notes: also called original humanized 108C10A6 antibody
[1]
  Kd: 1.9 nM
  koff: 0.00084 s⁻¹
  kon: 430000 M⁻¹ s⁻¹
[2]
  Kd: 0.41 nM
  koff: 0.00041 s⁻¹
  kon: 1e+06 M⁻¹ s⁻¹
[3]
  Kd: 2.1 nM
  koff: 0.00087 s⁻¹
  kon: 410000 M⁻¹ s⁻¹
[4]
  Kd: 0.39 nM
  koff: 0.00039 s⁻¹
  kon: 1e+06 M⁻¹ s⁻¹
[5]
  EC50: 7.6 nM
[6]
  Kd: 1.9 nM
  koff: 0.00084 s⁻¹
  kon: 430000 M⁻¹ s⁻¹
[7]
  Kd: 0.41 nM
  koff: 0.00041 s⁻¹
  kon: 1e+06 M⁻¹ s⁻¹
[8]
  EC50: 2.6 nM
[9]
  Kd: 1.5 nM
  koff: 0.00086 s⁻¹
  kon: 570000 M⁻¹ s⁻¹
[10]
  Kd: 0.38 nM
  koff: 0.00041 s⁻¹
  kon: 1.1e+06 M⁻¹ s⁻¹
[11]
  Kd: 1.5 nM
  koff: 0.00086 s⁻¹
  kon: 570000 M⁻¹ s⁻¹
[12]
  Kd: 0.38 nM
  koff: 0.00041 s⁻¹
  kon: 1.1e+06 M⁻¹ s⁻¹
[13]
  EC50: 5.5 nM
  Fitted Maximal MFI: 46600 MFI
[14]
  Kd: 2.6 nM
  koff: 0.00097 s⁻¹
  kon: 380000 M⁻¹ s⁻¹
[15]
  Kd: 0.47 nM
  koff: 0.00046 s⁻¹
  kon: 980000 M⁻¹ s⁻¹
[16]
  EC50: 4.3 nM
[17]
  Kd: 1.8 nM
  koff: 0.00087 s⁻¹
  kon: 480000 M⁻¹ s⁻¹
[18]
  Kd: 0.4 nM
  koff: 0.00042 s⁻¹
  kon: 1.1e+06 M⁻¹ s⁻¹

B2: 108VH10 / 108VL10.M1 (antibody, V domains shown)
VH: EVQLVESGGGLVQPGGSLRLSCAASGYSFTHHWIHWVRQAPGKGLEWVAMIDPSDSETRLSQKFKDRFTISADTSKNTAYLQMNSLRAEDTAVYYCSRLGRYYFDYWGQGTLVTVSS
VL: DIQMTQSPSSLSASVGDRVTITCRASENVGTYISWYQQKPGKAPKLLIYGASNRYTGVPSRFSGSRSGTDFTLTISSLQPEDFATYYCGESYGHLYTFGQGTKVEIK
notes: 4D5-framework series; also called VH10 VL10.M1; straight-graft antibody
[3]
  Kd: 34 nM
  koff: 0.0034 s⁻¹
  kon: 99000 M⁻¹ s⁻¹
[4]
  Kd: 5.6 nM
  koff: 0.0013 s⁻¹
  kon: 230000 M⁻¹ s⁻¹
[6]
  Kd: 36 nM
  koff: 0.003 s⁻¹
  kon: 85000 M⁻¹ s⁻¹
[7]
  Kd: 6.1 nM
  koff: 0.0014 s⁻¹
  kon: 230000 M⁻¹ s⁻¹
[19]
  fold drop of mono-valent binding affinity (reference not given; Table 2, experiment 1): 34 fold
[9]
  Kd: 28 nM
  koff: 0.003 s⁻¹
  kon: 110000 M⁻¹ s⁻¹
[10]
  Kd: 5.2 nM
  koff: 0.0013 s⁻¹
  kon: 240000 M⁻¹ s⁻¹
[14]
  Kd: 43 nM
  koff: 0.0038 s⁻¹
  kon: 87000 M⁻¹ s⁻¹
[15]
  Kd: 5.8 nM
  koff: 0.0016 s⁻¹
  kon: 280000 M⁻¹ s⁻¹

B3: 108VH5.M22 / 108VL1.M5 (antibody, human IgG4 S228P, kappa, V domains shown)
VH: EVQLVQSGAEVKKPGASVKVSCKASGYTFTHHWMHWVRQAPGQGLEWMGMIDASDIETRYAQKFQGRVTMTRDTSTSTVYMELSSLRSEDTAVYYCARLGRYYFDYWGQGTLVTVSS
VL: EIVLTQSPATLSLSPGERATLSCRASQSVSSYLAWYQQKPGQAPRLLIYGASNRATGIPARFSGSGSGTDFTLTISSLEPEDFAVYYCGESYGHLYTFGGGTKVEIKR
notes: Full-length IgG4 (S228P), kappa; also called VH5.M22 VL1.M5
[5]
  EC50: 10.1 nM
[8]
  EC50: 3.6 nM
[11]
  Kd: 35 nM
  koff: 0.0068 s⁻¹
  kon: 200000 M⁻¹ s⁻¹
[12]
  Kd: 6.1 nM
  koff: 0.0029 s⁻¹
  kon: 480000 M⁻¹ s⁻¹
[20]
  CCRF-CEM phagocytosis EC50: 0.37 nM
  CCRF-CEM phagocytosis, Phagocytosis (%): 59.4%
[13]
  EC50: 8.4 nM
  Fitted Maximal MFI: 41600 MFI
[16]
  EC50: 3.6 nM

B4: 108VH5.M16 / 108VL1.M5 (antibody, human IgG4 S228P, kappa, V domains shown)
VH: B3 VH with I56G
VL: B3 VL
notes: Full-length IgG4 (S228P), kappa; also called VH5.M16 VL1.M5
[1]
  Kd: 14 nM
  koff: 0.0041 s⁻¹
  kon: 290000 M⁻¹ s⁻¹
[2]
  Kd: 2.6 nM
  koff: 0.0019 s⁻¹
  kon: 720000 M⁻¹ s⁻¹
[8]
  EC50: 1.9 nM
[13]
  EC50: 6.9 nM
  Fitted Maximal MFI: 44700 MFI
[21]
  EC50: 3.9 nM
[22]
  Fitted Maximal MFI: 45300 MFI
[16]
  EC50: 1.8 nM
